How the values were obtained:
[1] = tested on: T1, His6-BldD full length (Streptomyces venezuelae), ORF:0f1775d8; test: EMSA; conditions: EMSA: 10 mM Tris pH 7.5, 1 mM EDTA, 5% glycerol, 10 mM NaCl, 1 mM MgCl2, 0.5 ug poly[d(I-C)] in 20 ul, 20 min room temperature; 5% PAGE in 0.5x TBE
T1 sequence: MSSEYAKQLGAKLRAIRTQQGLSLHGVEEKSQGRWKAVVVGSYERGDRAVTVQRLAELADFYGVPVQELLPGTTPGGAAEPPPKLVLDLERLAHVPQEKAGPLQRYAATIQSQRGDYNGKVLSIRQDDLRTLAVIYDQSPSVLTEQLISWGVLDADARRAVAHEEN

[2] = molecular target: His6-BldD-DBD (S. venezuelae BldD DNA-binding domain, residues 1-79) (Streptomyces venezuelae); test: cross-linking; 10 μM protein, 1 mM DSS, no c-di-GMP; 100 mM NaH2PO4, 150 mM NaCl, pH 8, room temperature 30 min; SDS-PAGE, Coomassie
[3] = molecular target: T2, BldD (Streptomyces venezuelae, UniProt F2RCL8); test: fluorescence polarization; type: binding
T2 construct: gene SVEN_1089; CTD (residues 80-166), purified from Sf9 cells
T2 sequence (F2RCL8 80-166): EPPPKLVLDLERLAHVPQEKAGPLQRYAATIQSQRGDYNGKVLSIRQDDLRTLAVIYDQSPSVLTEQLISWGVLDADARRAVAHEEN

GTTCGAAGATGTGGCCGACGGCGTCCACCCGGAGCGGCGCTCTCCGCCGACGTTCGCGCACCGCGACCGCGCACTCACGCTACGCTCACCAGGATTCCGTCCAGGACACCCGCACCGACACACCCGACAGCAGAACGGCTCAAGGCAACGC (double strand) [whiG promoter fragment, 151 bp]
binding [1]: binds

His6-BldD-DBD (S. venezuelae BldD DNA-binding domain, residues 1-79) (domain or fragment)
stoichiometry N [2]: 2

2′-O-(6-[Fluoresceinyl]aminohexylcarbamoyl)-cyclic diguanosine monophosphate [2′-Fluo-AHC-c-di-GMP]
Kd [3]: 2.5 ± 0.6 µM

CTAGCCACAGACACCGCGAAAAGGGAAGAAAACCCGCTAAATGGGGCATAGCTTTCGATGAACGACAGAAGGCTCGCGTCGCTCTCCTCTGTACGCGCCCCCTCACGTAGAGTGCCGAAGGGTGCCGTCCGACCCGTAACTCTTTCGAGTGACCGTCG (double strand) [bldM promoter fragment, 158 bp]
binding [1]: binds
